# Measurements published in paper PMC10110401, “HuR modulation counteracts lipopolysaccharide response in murine macrophages”.
# Molecular target: HuR M1M2 (rM1M2_HuR) (UniProt Q15717 20-186)
# Experiment: HTRF; 20 nM protein, 50 nM probe; hook point titration 0-500 nM protein; TM7nox inhibits with IC50 0.7956 uM (small-molecule value); REMSA: 3.7 nM (or 100 nM) protein, 1 nM probe, 30 min, 4% native PAGE, buffer not given; HTRF: 20 nM protein, 50 nM probe, buffer not given; pull-down: lysis in 20 mM Tris-HCl pH 7.5, 100 mM KCl, 5 mM MgCl2, 0.5% NP-40, probe 0.5 uM in TENT (20 mM Tris-HCl pH 8.0, 2 mM EDTA, 500 mM …)
# Details: protein: recombinant; tags: His-tag; label: biotin; single strand
# HuR M1M2 (rM1M2_HuR), sequence (Q15717 20-186): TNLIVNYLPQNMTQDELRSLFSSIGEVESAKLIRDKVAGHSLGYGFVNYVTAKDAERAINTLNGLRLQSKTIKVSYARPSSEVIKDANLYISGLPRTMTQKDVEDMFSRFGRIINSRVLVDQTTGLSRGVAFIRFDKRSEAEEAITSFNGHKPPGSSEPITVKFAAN
binder,measurement,value
"AUUAUUUAUUAUUUAUUUAUUAUUUA (ssRNA, 5'-biotin) [Bi-TNF ARE probe]",binding result,binds
